According to IntAct's records for PubMed 31515488:

B1: E3 ubiquitin-protein ligase CCNB1IP1 (Homo sapiens), Q9NPC3 (parent)
chain: MSLCEDMLLCNYRKCRIKLSGYAWVTACSHIFCDQHGSGEFSRSPAICPACNSTLSGKLDIVRTELSPSEEYKAMVLAGLRPEIVLDISSRALAFWTYQVHQERLYQEYNFSKAEGHLKQMEKIYTQQIQSKDVELTSMKGEVTSMKKVLEEYKKKFSDISEKLMERNRQYQKLQGLYDSLRLRNITIANHEGTLEPSMIAQSGVLGFPLGNNSKFPLDNTPVRNRGDGDGDFQFRPFFAGSPTAPEPSNSFFSFVSPSRELEQQQVSSRAFKVKRI
partner: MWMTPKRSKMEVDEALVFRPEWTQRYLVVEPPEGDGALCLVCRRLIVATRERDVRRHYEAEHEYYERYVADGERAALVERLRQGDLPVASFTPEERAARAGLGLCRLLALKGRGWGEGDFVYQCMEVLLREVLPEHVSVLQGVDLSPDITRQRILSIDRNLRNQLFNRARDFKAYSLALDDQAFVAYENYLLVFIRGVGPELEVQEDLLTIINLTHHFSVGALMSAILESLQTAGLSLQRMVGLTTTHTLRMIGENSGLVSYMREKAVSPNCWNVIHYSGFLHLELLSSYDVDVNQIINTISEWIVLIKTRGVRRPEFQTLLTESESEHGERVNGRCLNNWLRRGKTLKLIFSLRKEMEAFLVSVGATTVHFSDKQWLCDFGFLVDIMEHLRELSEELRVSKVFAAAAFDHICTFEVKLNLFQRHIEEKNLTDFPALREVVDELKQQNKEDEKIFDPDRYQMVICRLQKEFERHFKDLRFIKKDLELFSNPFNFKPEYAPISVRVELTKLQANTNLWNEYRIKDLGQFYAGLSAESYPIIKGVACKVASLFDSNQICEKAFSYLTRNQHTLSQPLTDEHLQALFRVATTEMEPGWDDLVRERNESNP
B2: EF-hand calcium-binding domain-containing protein 4B (Homo sapiens), Q9BSW2 (parent)
chain: MAAPDGRVVSRPQRLGQGSGQGPKGSGACLHPLDSLEQKETQEQTSGQLVMLRKAQEFFQTCDAEGKGFIARKDMQRLHKELPLSLEELEDVFDALDADGNGYLTPQEFTTGFSHFFFSQNNPSQEDAGEQVAQRHEEKVYLSRGDEDLGDMGEDEEAQFRMLMDRLGAQKVLEDESDVKQLWLQLKKEEPHLLSNFEDFLTRIISQLQEAHEEKNELECALKRKIAAYDEEIQHLYEEMEQQIKSEKEQFLLKDTERFQARSQELEQKLLCKEQELEQLTQKQKRLEGQCTALHHDKHETKAENTKLKLTNQELARELERTSWELQDAQQQLESLQQEACKLHQEKEMEVYRVTESLQREKAGLLKQLDFLRERNKHLRDERDICFQKNKAAKANTAASRASWKKRSGSVIGKYVDSRGILRSQSEEEEEVFGIPRRSSLGLSGYPLTEEEPGTGEPGPGGPYPRPLRRIISVEEDPLPQLLDGGFEQPLSKCSEEEEVSDQGVQGQIPEAPPLKLTPTSPRGQPVGKEALCKEESSPSAPDRLFKIVFVGNSAVGKTSFLRRFCEDRFSPGMAATVGIDYRVKTLNVDNSQVALQLWDTAGQERYRCITQQFFRKADGVIVMYDLTDKQSFLSVRRWLSSVEEAVGDRVPVLLLGNKLDNEKEREVPRGLGEQLATENNLIFYECSAYSGHNTKESLLHLARFLKEQEDTVREDTIQVGHPAKKKSCCG
partner: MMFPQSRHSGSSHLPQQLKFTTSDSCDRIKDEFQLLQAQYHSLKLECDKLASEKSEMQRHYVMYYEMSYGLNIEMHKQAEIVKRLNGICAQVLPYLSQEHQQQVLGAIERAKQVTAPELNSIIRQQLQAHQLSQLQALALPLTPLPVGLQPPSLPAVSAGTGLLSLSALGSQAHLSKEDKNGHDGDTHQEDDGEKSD
B3: Breast cancer metastasis-suppressor 1 (Homo sapiens), Q9HCU9 (parent)
chain: MPVQPPSKDTEEMEAEGDSAAEMNGEEEESEEERSGSQTESEEESSEMDDEDYERRRSECVSEMLDLEKQFSELKEKLFRERLSQLRLRLEEVGAERAPEYTEPLGGLQRSLKIRIQVAGIYKGFCLDVIRNKYECELQGAKQHLESEKLLLYDTLQGELQERIQRLEEDRQSLDLSSEWWDDKLHARGSSRSWDSLPPSKRKKAPLVSGPYIVYMLQEIDILEDWTAIKKARAAVSPQKRKSDGP
partner: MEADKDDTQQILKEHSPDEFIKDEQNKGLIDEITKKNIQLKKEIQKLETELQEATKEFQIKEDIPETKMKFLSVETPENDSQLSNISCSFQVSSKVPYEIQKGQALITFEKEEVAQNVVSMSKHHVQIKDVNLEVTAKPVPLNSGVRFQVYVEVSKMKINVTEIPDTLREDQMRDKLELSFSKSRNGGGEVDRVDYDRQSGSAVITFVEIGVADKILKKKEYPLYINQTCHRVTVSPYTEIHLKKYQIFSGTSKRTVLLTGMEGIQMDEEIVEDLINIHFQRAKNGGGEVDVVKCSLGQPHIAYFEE
B4: AKT-interacting protein (Homo sapiens), Q9H8T0 (parent)
chain: MNPFWSMSTSSVRKRSEGEEKTLTGDVKTSPPRTAPKKQLPSIPKNALPITKPTSPAPAAQSTNGTHASYGPFYLEYSLLAEFTLVVKQKLPGVYVQPSYRSALMWFGVIFIRHGLYQDGVFKFTVYIPDNYPDGDCPRLVFDIPVFHPLVDPTSGELDVKRAFAKWRRNHNHIWQVLMYARRVFYKIDTASPLNPEAAVLYEKDIQLFKSKVVDSVKVCTARLFDQPKIEDPYAISFSPWNPSVHDEAREKMLTQKKPEEQHNKSVHVAGLSWVKPGSVQPFSKEEKTVAT
partner: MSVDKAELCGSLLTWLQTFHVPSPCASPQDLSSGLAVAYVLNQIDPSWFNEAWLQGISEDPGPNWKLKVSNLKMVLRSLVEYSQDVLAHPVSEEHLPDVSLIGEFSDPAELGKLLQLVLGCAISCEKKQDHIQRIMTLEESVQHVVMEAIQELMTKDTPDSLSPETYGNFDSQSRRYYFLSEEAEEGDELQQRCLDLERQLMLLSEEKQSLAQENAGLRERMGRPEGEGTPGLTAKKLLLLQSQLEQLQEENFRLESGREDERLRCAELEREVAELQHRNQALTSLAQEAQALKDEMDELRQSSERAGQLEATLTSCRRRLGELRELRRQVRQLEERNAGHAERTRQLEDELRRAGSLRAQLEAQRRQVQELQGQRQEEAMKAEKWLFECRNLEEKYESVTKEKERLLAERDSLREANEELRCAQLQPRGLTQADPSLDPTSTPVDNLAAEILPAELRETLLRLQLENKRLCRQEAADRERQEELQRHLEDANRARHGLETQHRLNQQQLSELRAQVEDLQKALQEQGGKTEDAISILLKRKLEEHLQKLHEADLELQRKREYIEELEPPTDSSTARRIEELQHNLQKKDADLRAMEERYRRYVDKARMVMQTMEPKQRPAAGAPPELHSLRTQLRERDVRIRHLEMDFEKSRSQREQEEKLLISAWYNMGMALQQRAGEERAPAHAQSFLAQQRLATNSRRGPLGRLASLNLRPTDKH
B5: Protein BEX5 (Homo sapiens), Q5H9J7 (parent)
chain: MENVPKENKVVEKAPVQNEAPALGGGEYQEPGGNVKGVWAPPAPGFGEDVPNRLVDNIDMIDGDGDDMERFMEEMRELRRKIRELQLRYSLRILIGDPPHHDHHDEFCLMP
B6: DNA topoisomerase 3-beta-1 (Homo sapiens), O95985 (parent)
chain: MKTVLMVAEKPSLAQSIAKILSRGSLSSHKGLNGACSVHEYTGTFAGQPVRFKMTSVCGHVMTLDFLGKYNKWDKVDPAELFSQAPTEKKEANPKLNMVKFLQVEGRGCDYIVLWLDCDKEGENICFEVLDAVLPVMNKAHGGEKTVFRARFSSITDTDICNAMACLGEPDHNEALSVDARQELDLRIGCAFTRFQTKYFQGKYGDLDSSLISFGPCQTPTLGFCVERHDKIQSFKPETYWVLQAKVNTDKDRSLLLDWDRVRVFDREIAQMFLNMTKLEKEAQVEATSRKEKAKQRPLALNTVEMLRVASSSLGMGPQHAMQTAERLYTQGYISYPRTETTHYPENFDLKGSLRQQANHPYWADTVKRLLAEGINRPRKGHDAGDHPPITPMKSATEAELGGDAWRLYEYITRHFIATVSHDCKYLQSTISFRIGPELFTCSGKTVLSPGFTEVMPWQSVPLEESLPTCQRGDAFPVGEVKMLEKQTNPPDYLTEAELITLMEKHGIGTDASIPVHINNICQRNYVTVESGRRLKPTNLGIVLVHGYYKIDAELVLPTIRSAVEKQLNLIAQGKADYRQVLGHTLDVFKRKFHYFVDSIAGMDELMEVSFSPLAATGKPLSRCGKCHRFMKYIQAKPSRLHCSHCDETYTLPQNGTIKLYKELRCPLDDFELVLWSSGSRGKSYPLCPYCYNHPPFRDMKKGMGCNECTHPSCQHSLSMLGIGQCVECESGVLVLDPTSGPKWKVACNKCNVVAHCFENAHRVRVSADTCSVCEAALLDVDFNKAKSPLPGDETQHMGCVFCDPVFQELVELKHAASCHPMHRGGPGRRQGRGRGRARRPPGKPNPRRPKDKMSALAAYFV
partner: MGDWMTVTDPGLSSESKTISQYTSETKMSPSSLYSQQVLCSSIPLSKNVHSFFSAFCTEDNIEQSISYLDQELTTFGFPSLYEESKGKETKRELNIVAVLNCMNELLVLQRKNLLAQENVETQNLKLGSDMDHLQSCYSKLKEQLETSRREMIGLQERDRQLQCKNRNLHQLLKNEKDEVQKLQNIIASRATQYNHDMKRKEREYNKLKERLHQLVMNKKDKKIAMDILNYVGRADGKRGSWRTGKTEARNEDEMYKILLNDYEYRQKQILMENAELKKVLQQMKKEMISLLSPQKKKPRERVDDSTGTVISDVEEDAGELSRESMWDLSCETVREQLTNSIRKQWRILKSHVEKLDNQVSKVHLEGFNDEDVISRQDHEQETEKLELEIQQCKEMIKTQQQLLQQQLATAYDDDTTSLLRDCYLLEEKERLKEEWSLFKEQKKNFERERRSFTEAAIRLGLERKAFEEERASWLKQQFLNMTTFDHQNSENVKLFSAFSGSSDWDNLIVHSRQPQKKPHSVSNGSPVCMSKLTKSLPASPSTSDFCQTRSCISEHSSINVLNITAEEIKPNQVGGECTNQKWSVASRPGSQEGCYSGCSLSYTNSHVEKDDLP
B7: Protein RD3 (Homo sapiens), Q7Z3Z2 (parent)
chain: MSLISWLRWNEAPSRLSTRSPAEMVLETLMMELTGQMREAERQQRERSNAVRKVCTGVDYSWLASTPRSTYDLSPIERLQLEDVCVKIHPSYCGPAILRFRQLLAEQEPEVQEVSQLFRSVLQEVLERMKQEEEAHKLTRQWSLRPRGSLATFKTRARISPFASDIRTISEDVERDTPPPLRSWSMPEFRAPKAD

Variants of: B1
Details: with epmip_human EPM2AIP1, Q7L775

Variant | effect of a mutation on the interaction
N212D | with no effect
Y106H | with no effect
T187A | with no effect
R104H | disrupting interaction strength
F41L | with no effect

Variants of: B2
Details: with tle5_human TLE5, Q08117

Variant | effect of a mutation on the interaction
H212Q | with no effect

Variants of: B3
Details: with nmi_human NMI

Variant | effect of a mutation on the interaction
S7G | with no effect

Variants of: B4
Details: with hook2_human HOOK2, Q96ED9

Variant | effect of a mutation on the interaction
R33Q | with no effect

Variants of: B5
Details: with emil1_human EMILIN1, Q9Y6C2
Sequence of emil1_human EMILIN1, Q9Y6C2 (Q9Y6C2 whole entry): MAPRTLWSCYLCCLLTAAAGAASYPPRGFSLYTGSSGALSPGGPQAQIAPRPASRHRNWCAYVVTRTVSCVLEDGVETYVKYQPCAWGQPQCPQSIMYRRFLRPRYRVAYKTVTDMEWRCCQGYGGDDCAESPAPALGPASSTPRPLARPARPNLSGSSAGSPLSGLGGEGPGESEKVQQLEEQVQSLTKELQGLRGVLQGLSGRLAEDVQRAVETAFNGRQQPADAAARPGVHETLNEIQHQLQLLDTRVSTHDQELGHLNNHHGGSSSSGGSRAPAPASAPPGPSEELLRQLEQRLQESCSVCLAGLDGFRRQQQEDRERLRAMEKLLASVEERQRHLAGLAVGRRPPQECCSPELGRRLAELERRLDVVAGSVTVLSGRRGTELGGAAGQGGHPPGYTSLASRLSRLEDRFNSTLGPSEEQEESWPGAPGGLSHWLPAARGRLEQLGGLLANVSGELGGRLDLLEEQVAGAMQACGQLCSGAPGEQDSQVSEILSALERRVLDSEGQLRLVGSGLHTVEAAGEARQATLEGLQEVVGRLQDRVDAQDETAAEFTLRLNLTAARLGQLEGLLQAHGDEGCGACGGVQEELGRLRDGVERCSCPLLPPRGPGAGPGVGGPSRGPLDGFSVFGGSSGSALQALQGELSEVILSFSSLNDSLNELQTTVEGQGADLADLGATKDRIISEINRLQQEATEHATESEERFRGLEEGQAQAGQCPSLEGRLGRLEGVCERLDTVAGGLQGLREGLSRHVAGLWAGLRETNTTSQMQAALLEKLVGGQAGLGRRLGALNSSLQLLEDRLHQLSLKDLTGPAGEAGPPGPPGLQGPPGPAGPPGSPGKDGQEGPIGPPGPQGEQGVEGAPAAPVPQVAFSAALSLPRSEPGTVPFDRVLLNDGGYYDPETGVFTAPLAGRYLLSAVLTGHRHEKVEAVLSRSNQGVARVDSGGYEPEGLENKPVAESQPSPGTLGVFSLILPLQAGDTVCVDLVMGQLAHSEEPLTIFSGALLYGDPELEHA

Variant | effect of a mutation on the interaction
E74D | disrupting interaction strength

Variants of: B6
Details: with adip_human SSX2IP

Variant | effect of a mutation on the interaction
R267W | disrupting interaction strength

Variants of: B7
Details: with ei2ba_human EIF2B1, Q14232
Sequence of ei2ba_human EIF2B1, Q14232 (Q14232 whole entry): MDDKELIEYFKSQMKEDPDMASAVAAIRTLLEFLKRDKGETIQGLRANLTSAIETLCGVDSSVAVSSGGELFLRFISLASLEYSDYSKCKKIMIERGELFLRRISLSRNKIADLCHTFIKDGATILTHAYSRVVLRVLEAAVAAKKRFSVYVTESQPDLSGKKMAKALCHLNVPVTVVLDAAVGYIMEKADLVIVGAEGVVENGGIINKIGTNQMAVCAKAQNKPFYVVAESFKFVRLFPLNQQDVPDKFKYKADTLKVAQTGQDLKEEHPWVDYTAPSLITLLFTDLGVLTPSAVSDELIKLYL

Variant | effect of a mutation on the interaction
R167K | with no effect
